{
  "source": "paper PMC7315737",
  "about": "“The putative Escherichia coli dehydrogenase YjhC metabolises two dehydrated forms of N-acetylneuraminate produced by some sialidases” (Bioscience Reports, 2020)",
  "proteins": {"B1": {"name": "YjhC (Escherichia coli K-12) (protein)", "chain": "MINYGVVGVGYFGAELARFMNMHDNAKITCVYDPENGENIARELQCINMSSLDALVSSKLVDCVIVATPNYLHKEPVIKAAKNKKHVFCEKPIALSYEDCVDMVKACKEAGVTFMAGHIMNFFNGVQYARKLIKEGVIGEILSCHTKRNGWENKQERLSWKKMKEQSGGHLYHHIHELDCVQHLLGEIPETVTMIGGNLAHSGPGFGNEDDMLFMTLEFPSGKLATLEWGSAFNWPEHYVIINGTKGSIKIDMQETAGSLRIGGQTKHFLVHETQEEDDDRRKGNMTSEMDGAIAYGHPGKKTPLWLASLIRKETLFLHNILCGAKPEEDYIDLLNGEAAMSAIATADAATLSRSQDRKVKISEIIKHTSVM", "notes": "full-length ORF from ASKA library in pCA24N, N-terminal His6-tag kept, expressed in E. coli BL21"}},
  "type_in_all_cases": "biochemical, Escherichia coli",
  "key": {"[1]": {"substrate": "NC(=O)c1ccc[n+]([C@@H]2O[C@H](COP(=O)(O)OP(=O)(O)OC[C@H]3O[C@@H](n4cnc5c(N)ncnc54)[C@H](O)[C@@H]3O)[C@@H](O)[C@H]2O)c1", "test": "Neu5Ac formation versus NAD+ concentration, endpoint assay", "settings": "1 mM 2,7-AN, 0.45 µM YjhC, 30 mM HEPES pH 7.5, 10 mM KCl, 1 mM MgCl2, 37°C, Ka is a half-activation constant, not an association constant, varied: cofactor"}, "[2]": {"substrate": "CC(=O)N[C@H]1[C@H]2O[C@@](C(=O)O)(C[C@@H]1O)O[C@@H]2[C@H](O)CO", "test": "purified protein", "settings": "50 µM NAD+, 30 mM HEPES pH 7.5, 10 mM KCl, 1 mM MgCl2, 37°C, sigmoidal, Hill coefficient 2.20"}, "[3]": {"substrate": "[H][C@@]1([C@H](O)[C@H](O)CO)OC(C(=O)O)=C[C@H](O)[C@H]1NC(C)=O", "test": "purified protein", "settings": "50 µM NAD+, 30 mM HEPES pH 7.5, 10 mM KCl, 1 mM MgCl2, 37°C, sigmoidal, Hill coefficient 2.59"}},
  "data": [
    {"protein": "B1", "values": [
      {"measurement": "K0.5", "setting": "[1]", "result": 0.84, "unit": "µM"},
      {"measurement": "K0.5", "setting": "[2]", "result": 0.45, "unit": "mM"},
      {"measurement": "K0.5", "setting": "[3]", "result": 0.30, "unit": "mM"}
    ]}
  ]
}
